Results from US20190015518A1, “DRUG DELIVERY COMPOSITIONS AND METHODS” (priority 2016, published 2019).

Key:
[1] = system: MDA-1986 head and neck tumors; assay: Anticancer efficacy, orthotopic xenograft model of human HNSCC; assay type: in vivo, mouse; set-up: key to tumor response, Modified RECIST: PR=Partial Response (>30% reduction); PD=Progressive Disease (>30% tumor growth); SD=Stable Disease (neither PR nor PD criteria met)
Experimental: The MDA-1986 cells were prepared in PBS at a concentration of 2×10^7 cells/mL. Female NU/NU mice were anesthetized under 2% isoflurane in O2, and 50 μL of cell solution was injected into the oral sub-mucosa of the mice using a 27-ga needle. All procedures in the animal study were approved by the Institutional Animal Care and Use Committee of the University of Kansas. Tumor growth was monitored twice weekly by measurement with a digital caliper, and the tumor volume was calculated as 0.52×(width)^2×(length). […] The drugs were given weekly for 3 consecutive weeks.

[2] = Rehydration time of lyophilized HA-Lys-Pt; assay type: physicochemical
Experimental: 33HA-Lys-Pt (MW of HA: 33 kDa) from batch 33_01015 was used to evaluate the impact of trehalose as an excipient and lyoprotectant. […] The solution was freeze-dried using the following program. Samples were frozen in a −80° C. freezer for 4 hours. The vials were transferred to a freeze dryer and kept at −40° C. for 1.5 hours. The condenser point was set at −70° C. The vacuum setpoint was 100 mTorr. The parameters for primary drying were 30 hours at −35° C. and 10 mTorr. The parameters for secondary drying were 5 hours at 2° C. and 10 mTorr, followed by another 5 hours at 8° C. and 10 mTorr. […] During rehydration, 500-μL of water was added to the vial and the sample was gently shaken. The small molecular weight platinum species such as mono-aquated and di-aquated platinum were separated from the reconstituted 33HA-Lys-Pt using a Centricon centrifugal filter unit (10,000 MWCO, 4000 rpm for 10 min at 4° C.) and analyzed by an HPLC assay. The mobile phase was sodium phosphate solution (10-mM, pH 3.0) at a flow rate of 0.25 mL/min on an Alltech® 250 mm×4.6 mm M/M RP8/cation column thermostated at 25° C.
The solution was freeze-dried using the following program. Samples were frozen in a −80° C. freezer for 4 hours. The vials were transferred to a freeze dryer and kept at −40° C. for 1.5 hours. The condenser point was set at −70° C. The vacuum setpoint was 100 mTorr. The parameters for primary drying were 30 hours at −35° C. and 10 mTorr. The parameters for secondary drying were 5 hours at 2° C. and 10 mTorr, followed by another 5 hours at 8° C. and 10 mTorr. […] During rehydration, 500-μL of water was added to the vial and the sample was gently shaken.
One milliliter of samples were used for all tests. The trehalose percent weights varied from 8-20% wt. The pHs included 4.5, 5, 6, and 7. The solution was freeze-dried using the aforementioned freeze-drying program. […] During rehydration, 1-mL of water was added to the vial and the sample was gently shaken. Diaquated platinum species were separated using the aforementioned Centricon units and analyzed using the aforementioned HPLC method.
Other sample freezing methods were also tested. For examples, samples were gradually frozen in ethanol bath at −80° C. and lyophilized. In addition, samples were flash frozen using liquid nitrogen and lyophilized.
Rehydration using one half of the original sample volume was tested.
Besides trehalose, PEG 200 (2 and 5% wt) was tested as a second excipient to aid the rehydrate process.

[3] = 20 mg/kg s.c., three weekly injections

## HA-cis-[Pt(NH3)2(N^α-Acetyl-L-Lysine)] [75HA-Lys-Pt]
[1]; [3]
  average tumor size by the end of the sixth week: less than 200 mm^3
  tumor progression delay: delayed by four weeks
[1]; animal #1
  tumor response, Modified RECIST: PR (PR=Partial Response (>30% reduction))
[1]; animal #2
  tumor response, Modified RECIST: PR (PR=Partial Response (>30% reduction))
[1]; animal #3
  tumor response, Modified RECIST: PR (PR=Partial Response (>30% reduction))
[1]; animal #4
  tumor response, Modified RECIST: SD
[1]; animal #5
  tumor response, Modified RECIST: SD
[1]; animal #6
  tumor response, Modified RECIST: PR (PR=Partial Response (>30% reduction))
[1]; animal #7
  tumor response, Modified RECIST: SD
[1]; animal #8
  tumor response, Modified RECIST: PR (PR=Partial Response (>30% reduction))
[1]; three weekly injections
  rate of partial response (PR): 62.5%
[2]; 1.46 mg/mL, pH 6, trehalose 0% wt
  Rehydration Time: >48 h
[2]; 1.46 mg/mL, pH 6, trehalose 5% wt
  Rehydration Time: Ca. 12 hour
[2]; 1.46 mg/mL, pH 6, trehalose 10% wt
  Rehydration Time: 7 h
[2]; 1.46 mg/mL, pH 6, trehalose 15% wt
  Rehydration Time: 6 h
[2]; 1.46 mg/mL, pH 7, trehalose 5% wt
  Rehydration Time: ca. 2.5 hour
[2]; 1.46 mg/mL, pH 7, trehalose 10% wt
  Rehydration Time: 1 h
[2]; 1.46 mg/mL, pH 7, trehalose 15% wt
  Rehydration Time: 1 h
[2]; 1.99 mg/mL, pH 4.5, trehalose 15% wt
  Rehydration Time: 26 h
[2]; 1.99 mg/mL, pH 4.5, trehalose 20% wt
  Rehydration Time: 26 h
[2]; 1.99 mg/mL, pH 5, trehalose 15% wt
  Rehydration Time: 26 h
[2]; 1.99 mg/mL, pH 5, trehalose 20% wt
  Rehydration Time: 26 h
[2]; 1.99 mg/mL, pH adjusted to 5 at rehydration, trehalose 10% wt
  Rehydration Time: 6 to 20 h
[2]; 1.99 mg/mL, pH adjusted to 6 at rehydration, trehalose 10% wt
  Rehydration Time: 6 to 20 h
[2]; 1.99 mg/mL, pH adjusted to 7 at rehydration, trehalose 10% wt
  Rehydration Time: 6 to 20 h
[2]; 3 mg/mL, pH 5, trehalose 15% wt
  Rehydration Time: >48 h
[2]; batch 75_0706, 1.06 mg/mL, pH 5, trehalose 7.5% wt, rehydration using half the original volume
  Rehydration Time: 7 h
[2]; batch 75_0706, 1.06 mg/mL, pH 5, trehalose 10% wt, rehydration using half the original volume
  Rehydration Time: 7 h
[2]; batch 75_0706, 2.13 mg/mL, pH 5, trehalose 15% wt, Ethanol bath
  Rehydration Time: >48 h
[2]; batch 75_0706, 2.13 mg/mL, pH 5, trehalose 20% wt, Ethanol bath
  Rehydration Time: >48 h
[2]; batch 75_0706, 2.13 mg/mL, pH 5, trehalose 20% wt, PEG200 2% wt
  Rehydration Time: 48 h
[2]; batch 75_0706, 2.13 mg/mL, pH 5, trehalose 20% wt, PEG200 5% wt
  Rehydration Time: 48 h
[2]; batch 75_0706, 3.00 mg/mL, pH 5, trehalose 15% wt
  Rehydration Time: >48 h
